Source: US20250249039A1 (published 2025)

Molecular target: T1, PRAME peptide on HLA-A*02:01 (human)
T1 peptide: SLLQHLIGL
Test: multimer staining

binding result: recognises
B1: PRAME-425-358 (TCR, V domains shown)
Valpha: QQPVQSPQAVILREGEDAVINCSSSKALYSVHWYRQKHGEAPVFLMILLKGGEQKGHDKISASFNEKKQQSSLYLTASQLSYSGTYFCGTEGTGDYKLSFGAGTTVTVRA
Vbeta: EAQVTQNPRYLITVTGKKLTVTCSQNMNHEYMSWYRQDPGLGLRQIYYSMNVEVTDKGDVPEGYKVSRKEKRNFPLILESPSPNQTSLYFCASSAGTGGHEQYFGPGTRLTVT
